The source of these data is patent US20110200629A1.

The assay concerns the target T1, HLA-A0201 (human), P04439.
T1 chain: not shown

B1: murine H-2 Kb binding peptide VSV8 (RGYVYQGL, SEQ ID NO:6) (peptide)
peptide: RGYVYQGL
modifications: not checked
B1 returned a % MFI increase of 5.6%.
